Measured values from the supplement of paper PMC11875167.

Test: observed amide hydrogen exchange rate constant kobs (stretched exponential fit, FD-normalized) (s^-1); higher = faster H/D exchange (less protection)
Details: pH 3 (pH read); temperature: 20 °C; D2O: 88%
Summary of the method: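 Jurkat tryptic peptides (LysC/trypsin, carbamidomethylated cysteines) were labeled in 88% D2O, pHread 3, 20 °C, quenched with 0.23% formic acid at 13 times from 18 to 93,600 s, in processing triplicates. MS1 uptake (Q-Exactive HF, HDExaminer, no back-exchange correction) was normalized to full-deuteration controls (24 h, 37 °C). Curves were fitted to a stretched single exponential with β = 0.8. The observed exchange rate constant kobs is the fitted rate.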

| Substance | observed amide hydrogen exchange rate constant kobs |
| --- | --- |
| TAMSTPHVAEPAENEQDEQDENGAEASADLR | 0.00244 |
| TATESFASDPILYRPVAVALDTK | 0.000776 |
| TDTGEPMGR | 0.00239 |
| TENLLGSYFPK | 0.00102 |
| TEWLDGK | 0.00181 |
| TFFSFPAVVAPFK | 0.000546 |
| TFNTSTGGLLLPSDTK | 0.00131 |
| TFVNITPAEVGVLVGK | 0.000609 |
| TGTAEMSSILEER | 0.00127 |
| TIAPALVSK | 0.000597 |
| TIGGGDDSFNTFFSETGAGK | 0.00246 |
| TIIPLISQCTPK | 0.000921 |
| TITLEVEPSDTIENVK | 0.001 |
| TLAQLNPESSLFIIASK | 0.00061 |
| TLFPLIEAK | 0.000566 |
| TLGILGLGR | 0.00116 |
| TLHPDLGTDK | 0.00356 |
| TLLGDGPVVTDPK | 0.000938 |
| TLNDELEIIEGMK | 0.000994 |
| TLSDYNIQK | 0.00134 |
| TLTIVDTGIGMTK | 0.000986 |
| TLVDIAK | 0.000674 |
| TLVLLMGK | 0.000552 |
| TSFFQALGITTK | 0.00062 |
| TSRPENAIIYNNNEDFQVGQAK | 0.00112 |
| TVALWDLR | 0.000702 |
| TVHAGEVGSAEVVK | 0.00152 |

| Substance | observed amide hydrogen exchange rate constant kobs |
| --- | --- |
| TVTNAVVTVPAYFNDSQR | 0.000806 |
| TYSYLTPDLWK | 0.000805 |
| VAASNIVQMK | 0.000933 |
| VAGQDGSVVQFK | 0.00116 |
| VALVYGQMNEPPGAR | 0.00112 |
| VAPEEHPVLLTEAPLNPK | 0.00104 |
| VAQLEQVYIR | 0.001 |
| VAVATPAK | 0.000839 |
| VAVLGASGGIGQPLSLLLK | 0.000683 |
| VDFNVPMK | 0.000994 |
| VDNDENEHQLSLR | 0.00288 |
| VDQIIMAK | 0.00126 |
| VEGTEPTTAFNLFVGNLNFNK | 0.000826 |
| VEIIANDQGNR | 0.00189 |
| VELFFK | 0.000868 |
| VELLLK | 0.000604 |
| VESQLIGK | 0.00139 |
| VETGVLKPGMVVTFAPVNVTTEVK | 0.000574 |
| VEVQYK | 0.00112 |
| VFEGNRPTNSIVFTK | 0.000712 |
| VFIGNLNTLVVK | 0.000428 |
| VFLAQK | 0.00073 |
| VFSGLVSTGLK | 0.00112 |
| VHIEIGPDGR | 0.00136 |
| VHLVGIDIFTGK | 0.00113 |
| VIGSGCNLDSAR | 0.00116 |
| VIHDNFGIVEGLMTTVHAITATQK | 0.00116 |

| Substance | observed amide hydrogen exchange rate constant kobs |
| --- | --- |
| VIPELNGK | 0.00159 |
| VLATVTKPVGGDK | 0.000932 |
| VLDFEHFLPMLQTVAK | 0.000855 |
| VLEQLTGQTPVFSK | 0.00081 |
| VLITTDLLAR | 0.000753 |
| VLLPEYGGTK | 0.00144 |
| VLNTNIDGR | 0.00162 |
| VLQALEGLK | 0.00101 |
| VLQATVVAVGSGSK | 0.000618 |
| VLSSIEQK | 0.00109 |
| VLTVINQTQK | 0.00141 |
| VMLGETNPADSKPGTIR | 0.00166 |
| VMVQPINLIFR | 0.000387 |
| VNFAMNVGK | 0.000903 |
| VPPPPPIAR | 0.000659 |
| VPSLVGSFIR | 0.000779 |
| VRVELSNGEK | 0.00127 |
| VSFELFADK | 0.00165 |
| VSHLLGINVTDFTR | 0.00119 |
| VSHVSTGGGASLELLEGK | 0.000818 |
| VTIAQGGVLPNIQAVLLPK | 0.000495 |
| VTLATLK | 0.000759 |
| VTLDWAK | 0.00095 |
| VTLTSEEEAR | 0.00196 |
| VTVITK | 0.000489 |
| VVDLLAPYAK | 0.000767 |
| VVLIGGKPDR | 0.00162 |

| Substance | observed amide hydrogen exchange rate constant kobs |
| --- | --- |
| VVSSIEQK | 0.00104 |
| VVVSGLPPSGSWQDLK | 0.000996 |
| VYALPEDLVEVNPK | 0.0011 |
| VYVGNLGNNGNK | 0.00211 |
| WTGMIIGPPR | 0.000901 |
| YAFVNWINK | 0.00131 |
| YAISMAR | 0.00127 |
| YALYDATYETK | 0.00134 |
| YAVLYQPLFDK | 0.000677 |
| YHTINGHNAEVR | 0.00291 |
| YHTSQSGDEMTSLSEYVSR | 0.00202 |
| YIDQEELNK | 0.00207 |
| YISPDQLADLYK | 0.000916 |
| YLAEFATGNDRK | 0.0022 |
| YLIPNATQPESK | 0.000945 |
| YLNFFTK | 0.00107 |
| YLPELMAEK | 0.000924 |
| YLTVAAVFR | 0.000527 |
| YNQLLR | 0.000842 |
| YPALHKPENQDIDWGALEGETR | 0.0022 |
| YPIEHGIITNWDDMEK | 0.00172 |
| YPSPFFVFGEK | 0.000978 |
| YTPSGQAGAAASESLFVSNHAY | 0.00149 |
| YYVTIIDAPGHR | 0.00127 |
